Reference: paper PMC5045296
Positions count from the first letter of the chain named. Numbers in names are those of the source.

What was measured:
[1] = molecular target: tubulin (alpha/beta heterodimer), polymerised into microtubules or as free tubulin-dimers (porcine) (UniProt P02550)
[2] = molecular target: tubulin (alpha/beta heterodimer), polymerised into microtubules or as free tubulin-dimers (porcine) (UniProt P02550); test: co-sedimentation; KIF19A protein (printed 'Two micromoles') with 0-40 μM taxol-stabilized MTs in PEM buffer, 25°C, 15 min, AMP-PNP; 38,000 xg 10 min; SDS-PAGE band intensities; one site binding model
[3] = molecular target: tubulin (alpha/beta heterodimer), polymerised into microtubules or as free tubulin-dimers (porcine) (UniProt P02550); remark: listed apart in the source
[4] = molecular target: tubulin (alpha/beta heterodimer), polymerised into microtubules or as free tubulin-dimers (porcine) (UniProt P02550); remark: listed apart in the source
[5] = molecular target: tubulin (alpha/beta heterodimer), polymerised into microtubules or as free tubulin-dimers (porcine) (UniProt P02550); remark: listed apart in the source
[6] = molecular target: tubulin (alpha/beta heterodimer), polymerised into microtubules or as free tubulin-dimers (porcine) (UniProt P02550); remark: listed apart in the source

B1: KIF19A-353 (mouse KIF19A motor domain, monomeric construct) (domain or fragment)
chain: MKDSGDSKDQQLMVALRVRPISVAELEEGATLIAHKMDEQMVVLMDPMEDPDDILRAHRSREKSYLFDVAFDFTATQEMVYQATTKSLIEGVISGYNATVFAYGPTGCGKTYTMLGTDHEPGIYVRTLNDLFRAIEETSNDMEYEVSMSYLEIYNEMIRDLLNPALGYLELREDSKGVIQVAGITEVSTINAKEIMQLLMKGNRQRTQEPTAANQTSSRSHAVLQVAVRQRSRVKNILQEVRQGRLFMIDLAGSERASQTQNRGQRMKEGAHINRSLLALGNCINALSDKGSNKYINYRDSKLTRLLKDSLGGNSRTVMIAHISPASTAFEESRNTLTYAGRAKNIRTRVKQN
- MT-stimulated steady-state ATPase, maximum rate [1]: 1.43 s⁻¹
- steady-state ATPase stimulated by free tubulin-dimers, maximum rate [1]: 0.8 s⁻¹
- Kd [2]: 600 nM

B2: KIF19A-353 GS2R (G291 and S292 mutated to arginine) (domain or fragment)
chain: B1 chain with G291R, S292R
- Michaelis-Menten constant of the ATPase for MTs and for tubulins, against 353WT (times lower than 353WT) [3]: 4
- Kd [2]: 600 nM

B3: KIF19A-353 N297P (domain or fragment)
chain: B1 chain with N297P
- tubulin-stimulated ATPase rate, against the wild type (of the wild type) [4]: 0.5

B4: KIF19A-353 K2A (K290 and K294 replaced with alanine) (domain or fragment)
chain: B1 chain with K290A, K294A
- EC50 of depolymerization of GMPCPP-stabilized MTs (5 mM ATP) [5]: 678 nM
- MT depolymerization speed (TIRF, 125 nM motor) [5]: 2 nm/s
- Kd [2]: 3000 nM

B5: KIF19A-353 L55A (domain or fragment)
chain: B1 chain with L55A
- Kd [2]: 1600 nM

B6: KIF19A-353 PC2A (R56A-H58A-R59A-R61A) (domain or fragment)
chain: B1 chain with R56A, H58A, R59A, R61A
- K (M, MT) of the MT-stimulated ATPase, against 353WT (times that of 353WT) [6]: 30
- Kd [2]: 5800 nM
